Paper PMC7870875 (Scientific Reports, 2021)

Assays:
[1] = target: T1, full-length Spike protein of SARS-CoV-2 (SARS-CoV-2 (Wuhan-Hu-1 reference; …, UniProt P0DTC2); assay: far-Western, overlay or dot blot; details: one partner purified
T1 construct: source: bought: SINOBiological; produced in a baculovirus expression system

[2] = target: T2, Spike-GFP (SARS-CoV-2 (Wuhan-Hu-1 reference; …, UniProt P0DTC2); assay: immunostaining of cells or tissue; details: partners not purified
T2 construct: also called S-GFP

B1: intimin-Nanobody fusion of clone W23 (bacterial display) (VHH)
VHH: QVQLVESGGGLVQPGESLRLSCAASGNIFGIAAVHWFRKAPGKEREFTAGFGSDGSTNYANSVKGRFTISRDNAKNTTYLQMNSLKPEDTAVYYCHALIKNELGFLDYWGPGTQVTVSS
notes: also called clone W23 total protein extract
binding result [1]: binds | binding result [2]: binds
